# What was measured:
# [1] = target: human AXL extracellular domain transiently expressed on CHO-S cells (human) (UniProt P30530); experiment: flow cytometry, serial dilution on CHO-S cells transiently expressing human AXL ECD, AF647 anti-human IgG secondary, GeoMean (RL1-H)
# [2] = target: cynomolgus AXL extracellular domain transiently expressed on CHO-S cells (cynomolgus); experiment: flow cytometry, serial dilution on CHO-S cells transiently expressing cynomolgus AXL ECD, AF647 anti-human IgG secondary, GeoMean (RL1-H)
# [3] = target: His-tagged human AXL extracellular domain (recombinant) (human) (UniProt P30530); experiment: SPR classical sandwich assay (IBIS MX96): 100 nM analyte over AXL-His ECD held by surface-captured 22883; white cell = sandwiching
# [4] = target: His-tagged human AXL extracellular domain (recombinant) (human) (UniProt P30530); experiment: SPR classical sandwich assay (IBIS MX96): 100 nM analyte over AXL-His ECD held by surface-captured 22995; white cell = sandwiching
# [5] = target: His-tagged human AXL extracellular domain (recombinant) (human) (UniProt P30530); experiment: SPR classical sandwich assay (IBIS MX96): 100 nM analyte over AXL-His ECD held by surface-captured 23203-1; white cell = sandwiching
# [6] = target: His-tagged human AXL extracellular domain (recombinant) (human) (UniProt P30530); experiment: SPR classical sandwich assay (IBIS MX96): 100 nM analyte over AXL-His ECD held by surface-captured 10G5 analogue; white cell = sandwiching
# [7] = target: His-tagged human AXL extracellular domain (recombinant) (human) (UniProt P30530); experiment: SPR classical sandwich assay (IBIS MX96): 100 nM analyte over AXL-His ECD held by the surface-captured Control antibody (f2); white cell = sandwiching
# [8] = target: His-tagged human AXL extracellular domain (recombinant) (human) (UniProt P30530); experiment: SPR classical sandwich assay (IBIS MX96): 100 nM analyte over AXL-His ECD held by surface-captured YW327.6S2 IgG1-LALA analogue; grey cell = blocked (self)
# Chain of His-tagged human AXL extracellular domain (recombinant) (human) (P30530 26-451): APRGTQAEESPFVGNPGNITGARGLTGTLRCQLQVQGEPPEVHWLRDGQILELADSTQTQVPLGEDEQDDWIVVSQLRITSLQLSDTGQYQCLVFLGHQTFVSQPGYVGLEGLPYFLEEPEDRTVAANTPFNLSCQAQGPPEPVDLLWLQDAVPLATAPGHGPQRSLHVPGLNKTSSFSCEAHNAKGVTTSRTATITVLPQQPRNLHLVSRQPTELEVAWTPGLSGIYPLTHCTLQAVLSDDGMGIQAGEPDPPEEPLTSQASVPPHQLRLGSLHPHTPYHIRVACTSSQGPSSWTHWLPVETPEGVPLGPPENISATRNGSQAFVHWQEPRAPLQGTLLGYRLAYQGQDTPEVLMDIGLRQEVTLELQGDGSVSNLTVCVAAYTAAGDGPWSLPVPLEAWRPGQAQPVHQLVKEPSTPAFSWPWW
# Chain of YW327.6S2 IgG1-LALA analogue (Genentech) (antibody) (VH): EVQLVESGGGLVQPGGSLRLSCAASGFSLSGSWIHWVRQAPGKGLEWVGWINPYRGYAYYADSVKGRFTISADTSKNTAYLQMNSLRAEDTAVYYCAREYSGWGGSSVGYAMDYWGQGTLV
# Chain of YW327.6S2 IgG1-LALA analogue (Genentech) (antibody) (VL): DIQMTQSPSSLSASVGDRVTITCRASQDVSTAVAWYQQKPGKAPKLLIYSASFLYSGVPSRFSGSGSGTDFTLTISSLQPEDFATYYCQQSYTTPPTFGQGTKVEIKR
# Chain of human AXL extracellular domain transiently expressed on CHO-S cells (human) (P30530 26-451 limits assumed): as the sequence (P30530 26-451) above
EC50 (read off the curve) [1],EC50 (read off the curve) [2],normalized SPR sandwich response [3],normalized SPR sandwich response [4],normalized SPR sandwich response [5],normalized SPR sandwich response [6],normalized SPR sandwich response [7],normalized SPR sandwich response [8],Substance
0.006 µg/mL,0.008 µg/mL,,,,,,,10G5 IgG1-LALA analogue (BerGenBio) (antibody)
0.06 µg/mL,0.05 µg/mL,,,,,,,Ax225 IgG1-LALA analogue (Chugai) (antibody)
,,3.9,1.1,1.1,1.2,1.3,0,YW327.6S2 IgG1-LALA analogue (Genentech) (antibody)
